Results on four molecules are retold here after patent publication US20040229250A1 (SHIRE HUMAN GENETIC THERAPIES, published 2004).

Series [1] has as its target T1, 23mer peptide P23 (MTDFYVPVSLCTPSRAALLTGRS).
T1 chain: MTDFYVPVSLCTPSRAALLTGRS

For series [2], the target named is T2, Formylglycine Generating Enzyme (FGE) purified from bovine testis microsomes (reticuloplasm) (bovine, UniProt Q0P5L5 34-374, N-glycosylated (bound to Concanavalin A)).
T2 construct: mature; Native enzyme at several stages of purification (microsome extract, MonoQ pool, ConA eluate); also called bovine FGE; FGE activity
T2 sequence (looked up): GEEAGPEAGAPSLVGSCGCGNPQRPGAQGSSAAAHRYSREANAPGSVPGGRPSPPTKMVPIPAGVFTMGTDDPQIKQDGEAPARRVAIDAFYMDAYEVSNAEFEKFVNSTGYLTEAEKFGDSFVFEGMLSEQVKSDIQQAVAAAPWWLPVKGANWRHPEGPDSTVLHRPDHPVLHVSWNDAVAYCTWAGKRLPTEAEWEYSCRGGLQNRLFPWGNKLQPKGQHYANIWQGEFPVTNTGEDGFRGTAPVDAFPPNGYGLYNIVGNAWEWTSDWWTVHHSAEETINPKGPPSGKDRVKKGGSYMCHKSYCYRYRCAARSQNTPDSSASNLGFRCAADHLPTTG
As to the kind of experiment: affinity chromatography, peptide on Affigel 10, FGE from bovine testis. The text has this:
(§1) For purification of FGE the soluble fraction (reticuloplasm) of bovine testis microsomes served as the starting material. The specific activity of FGE was 10-20 times higher than that in reticuloplasm from bovine pancreas microsomes (Fey et al., J. Biol. Chem., 2001, 276:47021-47028). Purification of FGE was achieved by a combination of four chromatographic steps. The first two steps were chromatography on a MonoQ anion exchanger and on Concanavalin A-Sepharose. At pH 8 the FGE activity bound to MonoQ and was eluted at 50-165 mM NaCl with 60-90% recovery. When this fraction was mixed with Concanavalin A-Sepharose, FGE was bound. 30-40% of the starting activity could be eluted with 0.5 M a-methyl mannoside. The two final purification steps were chromatography on affinity matrices derivatized with 16mer peptides. The first affinity matrix was Affigel 10 substituted with a variant of the ASA65-80 peptide, in which residues Cys69, Pro7l and Arg73, critical for FGly formation, were scrambled (scrambled peptide […] -SEQ ID NO:34). […] Chromatography on the scrambled peptide affinity matrix removed peptide binding proteins including chaperones of the endoplasmic reticulum. The second affinity matrix was Affigel 10 substituted with a variant of the ASA65-80 peptide, in which the Cys69 was replaced by a serine (Ser69 peptide […]-SEQ ID NO:35).

Series [3] deals with T2, Formylglycine Generating Enzyme (FGE) …. As to the kind of experiment: affinity chromatography on peptide-derivatized Affigel 10, FGE activity from bovine testis.
Source text: as §1

B1: Formylglycine Generating Enzyme (FGE) purified from bovine testis microsomes (reticuloplasm) (protein)
chain: GEEAGPEAGAPSLVGSCGCGNPQRPGAQGSSAAAHRYSREANAPGSVPGGRPSPPTKMVPIPAGVFTMGTDDPQIKQDGEAPARRVAIDAFYMDAYEVSNAEFEKFVNSTGYLTEAEKFGDSFVFEGMLSEQVKSDIQQAVAAAPWWLPVKGANWRHPEGPDSTVLHRPDHPVLHVSWNDAVAYCTWAGKRLPTEAEWEYSCRGGLQNRLFPWGNKLQPKGQHYANIWQGEFPVTNTGEDGFRGTAPVDAFPPNGYGLYNIVGNAWEWTSDWWTVHHSAEETINPKGPPSGKDRVKKGGSYMCHKSYCYRYRCAARSQNTPDSSASNLGFRCAADHLPTTG
Consider B1, for which, in series [1], the “conversion of P23 into a FGly containing derivative (MALDI-TOF)” value was “converted up to 95% of the peptide into a FGly containing derivative” and the km result is on record as “The km for P23 was 13 nM”.

B2: wildtype ASA65-80 peptide (synthetic 16mer corresponding to arylsulfatase A residues 65-80) (peptide)
peptide: PVSLCTPSRAALLTGR
notes: They follow from P23 and from the Ser69 peptide, which is the Cys69 to Ser variant
For the molecule B2, the binding result in series [2] is on record as “binds”.

B3: Ser69 peptide PVSLSTPSRAALLTGR (peptide)
peptide: PVSLSTPSRAALLTGR
notes: also called Ser69 oligopeptide; variant of the ASA65-80 peptide in which Cys69 was replaced by a serine
With B3, the binding result in series [2] was “binds”.

B4: scrambled peptide PVSLPTRSCAALLTGR (peptide)
peptide: PVSLPTRSCAALLTGR
notes: also called scrambled oligopeptide; variant of the ASA65-80 peptide in which residues Cys69, Pro71 and Arg73 were scrambled
As to B4, the binding result in series [3] is reported as “no binding”.
